The source of these data is patent EP4491631A1.

The target in assay [1] is IL-2R on murine splenocytes (mouse) (UniProt P16297). Kind of assay: cell-based or functional assay.
For assay [2], the target named is CD122/CD132 complex (His-tagged, Acro Biosystem ILG-H5283) (UniProt P14784). Kind of assay: SPR, CD122/CD132 captured on NTA chip.
CD122/CD132 complex (His-tagged, Acro Biosystem ILG-H5283), sequence (P14784 27-239 limits assumed, chain 1 of 2): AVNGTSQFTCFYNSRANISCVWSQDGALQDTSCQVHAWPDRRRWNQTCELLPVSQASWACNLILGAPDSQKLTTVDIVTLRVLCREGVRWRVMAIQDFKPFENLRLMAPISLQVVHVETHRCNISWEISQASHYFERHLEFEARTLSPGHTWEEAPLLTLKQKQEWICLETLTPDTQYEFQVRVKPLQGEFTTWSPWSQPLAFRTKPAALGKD
CD122/CD132 complex (His-tagged, Acro Biosystem ILG-H5283), sequence (P31785 23-262 limits assumed, chain 2 of 2, further chain): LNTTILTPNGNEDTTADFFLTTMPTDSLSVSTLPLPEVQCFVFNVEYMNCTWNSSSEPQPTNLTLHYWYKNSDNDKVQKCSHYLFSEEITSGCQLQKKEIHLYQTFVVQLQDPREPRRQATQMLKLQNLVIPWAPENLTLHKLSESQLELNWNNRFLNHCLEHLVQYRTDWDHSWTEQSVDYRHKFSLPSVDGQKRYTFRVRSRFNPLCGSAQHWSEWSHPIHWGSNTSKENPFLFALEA

IL-2R on murine splenocytes (mouse), sequence (P16297 27-539, chain 1 of 2): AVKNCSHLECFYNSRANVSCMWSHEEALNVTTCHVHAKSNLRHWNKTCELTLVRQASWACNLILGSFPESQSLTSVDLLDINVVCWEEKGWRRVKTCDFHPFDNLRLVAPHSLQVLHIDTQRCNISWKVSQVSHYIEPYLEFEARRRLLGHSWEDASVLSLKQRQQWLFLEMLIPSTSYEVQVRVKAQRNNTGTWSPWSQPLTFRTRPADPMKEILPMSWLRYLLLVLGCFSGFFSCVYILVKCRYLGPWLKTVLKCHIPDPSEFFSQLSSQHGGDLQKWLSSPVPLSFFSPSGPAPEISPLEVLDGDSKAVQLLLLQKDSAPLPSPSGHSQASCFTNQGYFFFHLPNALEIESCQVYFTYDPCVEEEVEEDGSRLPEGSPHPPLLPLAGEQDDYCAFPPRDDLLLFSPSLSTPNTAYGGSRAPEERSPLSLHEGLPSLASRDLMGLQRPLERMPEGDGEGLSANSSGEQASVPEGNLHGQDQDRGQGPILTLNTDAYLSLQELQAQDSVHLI
IL-2R on murine splenocytes (mouse), sequence (P34902 23-369, chain 2 of 2, further chain): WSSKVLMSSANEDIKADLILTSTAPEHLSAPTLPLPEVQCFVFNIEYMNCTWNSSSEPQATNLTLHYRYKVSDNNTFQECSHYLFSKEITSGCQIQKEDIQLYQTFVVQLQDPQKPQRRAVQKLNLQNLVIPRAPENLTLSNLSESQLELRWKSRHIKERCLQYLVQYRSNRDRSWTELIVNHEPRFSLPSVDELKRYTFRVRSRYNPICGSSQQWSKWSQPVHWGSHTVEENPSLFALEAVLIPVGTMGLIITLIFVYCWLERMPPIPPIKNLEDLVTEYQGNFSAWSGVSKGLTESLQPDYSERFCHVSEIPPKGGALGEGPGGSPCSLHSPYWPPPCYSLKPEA

In the case of Proleukin (ligand), in assay [1], the EC50 CD8 cells (pSTAT5) is 4.1 nM, the EC50 NK cells (pSTAT5) is 1.4 nM, the EC50 Treg cells (pSTAT5) is under 16 pM and the EC50 pSTAT5 on CD8 cells is 11.9 nM. In assay [1], this substance came in with an EC50 pSTAT5 on NK cells of 2.51 nM and an EC50 pSTAT5 on Treg cells of under 20 pM. Also, the Kd (usually the free concentration of one partner at which half of the binding sites on the other are occupied at equilibrium, for simple one-to-one binding) in assay [2] worked out at 0.42 nM.
